The results in this text go back to patent US20200071404A1.

The experiment deals with human CD73 expressed on cells (cancer cell line NCI-H1373 endogenously expressing human CD73; human T cell expressing human CD73) (human) (UniProt P21589). The experiment in a line: cell-based or functional assay.
Chain of human CD73 expressed on cells (cancer cell line NCI-H1373 endogenously expressing human CD73; human T cell expressing human CD73) (human) (P21589 27-549): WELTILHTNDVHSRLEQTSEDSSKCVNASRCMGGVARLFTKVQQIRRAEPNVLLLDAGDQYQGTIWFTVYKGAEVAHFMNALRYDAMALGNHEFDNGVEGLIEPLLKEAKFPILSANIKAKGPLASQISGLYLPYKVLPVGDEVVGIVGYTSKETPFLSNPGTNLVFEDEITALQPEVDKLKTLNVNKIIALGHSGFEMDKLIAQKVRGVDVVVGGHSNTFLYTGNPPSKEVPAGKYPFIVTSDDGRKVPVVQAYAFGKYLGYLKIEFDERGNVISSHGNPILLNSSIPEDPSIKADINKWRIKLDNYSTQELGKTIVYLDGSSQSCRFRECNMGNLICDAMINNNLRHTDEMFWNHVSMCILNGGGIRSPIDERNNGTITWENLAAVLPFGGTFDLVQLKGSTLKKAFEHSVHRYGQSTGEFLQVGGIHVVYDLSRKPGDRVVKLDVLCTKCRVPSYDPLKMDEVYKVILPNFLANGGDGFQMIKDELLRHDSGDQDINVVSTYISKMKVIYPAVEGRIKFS

B1: 6E1 (antibody, from another filing, V domains shown)
VH: EFQLQQSGPELVKPGASVKVSCKASGYAFTSYNMYWVKQSHGKRLEWIGYIDPYNGGSSYNQKFKGKATLTVDKSSSTAYMHLNNLTSEDSAVYYCARGYNNYKAWFAYWGQGTLVTVSA
VL: SIVMTQTPKFLLVSAGDRVTITCKASQSVTNDVAWYQQKPGQSPKLLIYYASNRYTGVPDRFTGSGYGTDFTFTISTMQAEDLAVYFCQQDYSSLTFGAGTKLELK
B1 registered an EC50 (ng/mL), IFNγ; recovery of AMP-dependently suppressed human T cell functions of 132 ng/mL and an EC50 (ng/mL), Proliferation of T cells; recovery of AMP-dependently suppressed human T cell functions of 357 ng/mL.
